In article PMC7817217 (Proceedings of the National Academy of Sciences of the …, 2020):
Like-named read-outs stand apart in the source and are kept apart here.

Experiments:
[1] = molecular target: SARS-CoV-2 spike protein receptor binding domain (RBD) (SARS-CoV-2, UniProt P0DTC2 319-541); assay: SPR; settings: both partners purified
[2] = molecular target: SARS-CoV-2 spike protein receptor binding domain (RBD) (SARS-CoV-2, UniProt P0DTC2 319-541); assay: SPR; settings: both partners purified; remark: listed apart in the source
crystal structure = molecular target: the molecule itself; assay: crystal structure
[3] = molecular target: SARS-CoV-2 spike protein receptor binding domain (RBD) (SARS-CoV-2, UniProt P0DTC2 319-541); assay: SPR

Row | Binder | koff [1] [s⁻¹] | Kd [2] [nM] | further results
1 | bat ACE2 from Rhinolophus macrotis, expressed in E. coli and refolded (bACE2-Rm-E. coli) (domain or fragment) STTEDEAKKFLDKFNSKAEDLSYESSLASWDYNTNISDENVQKMDEAGAKWSAFYEEQSKLAKNYPLEEIQNDTVKRQLQILQQSGSPVLSEDKSKRLNSILNAMSTIYSTGKVCKPNNPQECLLLEPGLDNIMGTSKDYNERLWAWEGWRAEVGKQLRPLYEEYVVLKNEMARGYHYEDYGDYWRRDYETEESSGPGYSRDQLMKDVDRIFTEIKPLYEHLHAYVRAKLMDTYPLHISPTGCLPAHLLGDMWGRFWTNLYPLTVPFGQKPNIDVTDAMLNQGWDANRIFKEAEKFFVSVSLPKMTEGFWNKSMLTEPGDGRKVVCHPTAWDLGKGDFRIKMCTKVTMEDFLTAHHEMGHIQYDMAYASQPYLLRNGANEGFHEAVGEVMSLSVATPKHLKTMGLLSPDFREDDETEINFLLKQALNIVGTLPFTYMLEKWRWMVFKGEIPKEEWMKKWWEMKREIVGVVEPVPHDETYCDPASLFHVANDYSFIRYYTRTIFEFQFHEALCRIAQHNGPLHKCDISNSTDAGKKLHQMLSVGKSQAWTKTLEDIVDSRNMDVGPLLRYFKPLYTWLQEQNRKSYVGWNTDWSPYADQSIKVWISLKSALGEKAYEWNDNEMYLFRSSVAYAMREYFLKTKNQTILFGDENVWVSNLKPRISFNFHVTSPGNVSDIIPRPEVEGAIRMSRSRINDAFRLDDNSLEFLGIQPTLGPPYQPPVTI | 0.132 |  | kon [1]: 102000 M⁻¹ s⁻¹
2 | bACE2-Rm (bat ACE2 from Rhinolophus macrotis) expressed in E. coli, residues 19 to 741 (domain or fragment, also called bACE2-Rm-E. coli; bat ACE2-E. coli) STTEDEAKKFLDKFNSKAEDLSYESSLASWDYNTNISDENVQKMDEAGAKWSAFYEEQSKLAKNYPLEEIQNDTVKRQLQILQQSGSPVLSEDKSKRLNSILNAMSTIYSTGKVCKPNNPQECLLLEPGLDNIMGTSKDYNERLWAWEGWRAEVGKQLRPLYEEYVVLKNEMARGYHYEDYGDYWRRDYETEESSGPGYSRDQLMKDVDRIFTEIKPLYEHLHAYVRAKLMDTYPLHISPTGCLPAHLLGDMWGRFWTNLYPLTVPFGQKPNIDVTDAMLNQGWDANRIFKEAEKFFVSVSLPKMTEGFWNKSMLTEPGDGRKVVCHPTAWDLGKGDFRIKMCTKVTMEDFLTAHHEMGHIQYDMAYASQPYLLRNGANEGFHEAVGEVMSLSVATPKHLKTMGLLSPDFREDDETEINFLLKQALNIVGTLPFTYMLEKWRWMVFKGEIPKEEWMKKWWEMKREIVGVVEPVPHDETYCDPASLFHVANDYSFIRYYTRTIFEFQFHEALCRIAQHNGPLHKCDISNSTDAGKKLHQMLSVGKSQAWTKTLEDIVDSRNMDVGPLLRYFKPLYTWLQEQNRKSYVGWNTDWSPYADQSIKVWISLKSALGEKAYEWNDNEMYLFRSSVAYAMREYFLKTKNQTILFGDENVWVSNLKPRISFNFHVTSPGNVSDIIPRPEVEGAIRMSRSRINDAFRLDDNSLEFLGIQPTLGPPYQPPVTI |  | 1300 | binding result (crystal structure): binds
3 | bat ACE2 from Rhinolophus macrotis, expressed in insect cells (bACE2-Rm-insect) (domain or fragment) STTEDEAKKFLDKFNSKAEDLSYESSLASWDYNTNISDENVQKMDEAGAKWSAFYEEQSKLAKNYPLEEIQNDTVKRQLQILQQSGSPVLSEDKSKRLNSILNAMSTIYSTGKVCKPNNPQECLLLEPGLDNIMGTSKDYNERLWAWEGWRAEVGKQLRPLYEEYVVLKNEMARGYHYEDYGDYWRRDYETEESSGPGYSRDQLMKDVDRIFTEIKPLYEHLHAYVRAKLMDTYPLHISPTGCLPAHLLGDMWGRFWTNLYPLTVPFGQKPNIDVTDAMLNQGWDANRIFKEAEKFFVSVSLPKMTEGFWNKSMLTEPGDGRKVVCHPTAWDLGKGDFRIKMCTKVTMEDFLTAHHEMGHIQYDMAYASQPYLLRNGANEGFHEAVGEVMSLSVATPKHLKTMGLLSPDFREDDETEINFLLKQALNIVGTLPFTYMLEKWRWMVFKGEIPKEEWMKKWWEMKREIVGVVEPVPHDETYCDPASLFHVANDYSFIRYYTRTIFEFQFHEALCRIAQHNGPLHKCDISNSTDAGKKLHQMLSVGKSQAWTKTLEDIVDSRNMDVGPLLRYFKPLYTWLQEQNRKSYVGWNTDWSPYAD | 0.0692 |  | 
4 | bACE2-Rm residues 19 to 615 fused to the mouse Fc tag (bACE2-Rm-mFc) (Fc fusion, also called bACE2-Rm-HEK293T cells; bACE2-Rm-WT) STTEDEAKKFLDKFNSKAEDLSYESSLASWDYNTNISDENVQKMDEAGAKWSAFYEEQSKLAKNYPLEEIQNDTVKRQLQILQQSGSPVLSEDKSKRLNSILNAMSTIYSTGKVCKPNNPQECLLLEPGLDNIMGTSKDYNERLWAWEGWRAEVGKQLRPLYEEYVVLKNEMARGYHYEDYGDYWRRDYETEESSGPGYSRDQLMKDVDRIFTEIKPLYEHLHAYVRAKLMDTYPLHISPTGCLPAHLLGDMWGRFWTNLYPLTVPFGQKPNIDVTDAMLNQGWDANRIFKEAEKFFVSVSLPKMTEGFWNKSMLTEPGDGRKVVCHPTAWDLGKGDFRIKMCTKVTMEDFLTAHHEMGHIQYDMAYASQPYLLRNGANEGFHEAVGEVMSLSVATPKHLKTMGLLSPDFREDDETEINFLLKQALNIVGTLPFTYMLEKWRWMVFKGEIPKEEWMKKWWEMKREIVGVVEPVPHDETYCDPASLFHVANDYSFIRYYTRTIFEFQFHEALCRIAQHNGPLHKCDISNSTDAGKKLHQMLSVGKSQAWTKTLEDIVDSRNMDVGPLLRYFKPLYTWLQEQNRKSYVGWNTDWSPYAD |  | 2780 | 
5 | bat ACE2 from Rhinolophus macrotis fused to the mouse Fc tag (bACE2-Rm-mFc) (Fc fusion) STTEDEAKKFLDKFNSKAEDLSYESSLASWDYNTNISDENVQKMDEAGAKWSAFYEEQSKLAKNYPLEEIQNDTVKRQLQILQQSGSPVLSEDKSKRLNSILNAMSTIYSTGKVCKPNNPQECLLLEPGLDNIMGTSKDYNERLWAWEGWRAEVGKQLRPLYEEYVVLKNEMARGYHYEDYGDYWRRDYETEESSGPGYSRDQLMKDVDRIFTEIKPLYEHLHAYVRAKLMDTYPLHISPTGCLPAHLLGDMWGRFWTNLYPLTVPFGQKPNIDVTDAMLNQGWDANRIFKEAEKFFVSVSLPKMTEGFWNKSMLTEPGDGRKVVCHPTAWDLGKGDFRIKMCTKVTMEDFLTAHHEMGHIQYDMAYASQPYLLRNGANEGFHEAVGEVMSLSVATPKHLKTMGLLSPDFREDDETEINFLLKQALNIVGTLPFTYMLEKWRWMVFKGEIPKEEWMKKWWEMKREIVGVVEPVPHDETYCDPASLFHVANDYSFIRYYTRTIFEFQFHEALCRIAQHNGPLHKCDISNSTDAGKKLHQMLSVGKSQAWTKTLEDIVDSRNMDVGPLLRYFKPLYTWLQEQNRKSYVGWNTDWSPYAD | 0.137 |  | 
6 | bACE2-Rm (bat ACE2 from Rhinolophus macrotis) expressed in insect cells, residues 19 to 615 (domain or fragment) STTEDEAKKFLDKFNSKAEDLSYESSLASWDYNTNISDENVQKMDEAGAKWSAFYEEQSKLAKNYPLEEIQNDTVKRQLQILQQSGSPVLSEDKSKRLNSILNAMSTIYSTGKVCKPNNPQECLLLEPGLDNIMGTSKDYNERLWAWEGWRAEVGKQLRPLYEEYVVLKNEMARGYHYEDYGDYWRRDYETEESSGPGYSRDQLMKDVDRIFTEIKPLYEHLHAYVRAKLMDTYPLHISPTGCLPAHLLGDMWGRFWTNLYPLTVPFGQKPNIDVTDAMLNQGWDANRIFKEAEKFFVSVSLPKMTEGFWNKSMLTEPGDGRKVVCHPTAWDLGKGDFRIKMCTKVTMEDFLTAHHEMGHIQYDMAYASQPYLLRNGANEGFHEAVGEVMSLSVATPKHLKTMGLLSPDFREDDETEINFLLKQALNIVGTLPFTYMLEKWRWMVFKGEIPKEEWMKKWWEMKREIVGVVEPVPHDETYCDPASLFHVANDYSFIRYYTRTIFEFQFHEALCRIAQHNGPLHKCDISNSTDAGKKLHQMLSVGKSQAWTKTLEDIVDSRNMDVGPLLRYFKPLYTWLQEQNRKSYVGWNTDWSPYAD |  | 1500 | 
7 | bACE2 from Rhinolophus affinis (bACE2-Ra) (receptor) STTEDRAKIFLDNFNHEAEDLSYQSSLASWEYNTNISDENVQKMDEAGAKWSAFYEEQSKLAKNYPLEEIQTVPVKLQLQILQQSGSPVLSEDKSKRLNSILNAMSTIYSTGKVCKPNNPQECFLLEPGLDNIMGTSKDYNERLWAWEGWRAEVGKQLRPLYEEYVVLKNEMARGYHYEDYGDYWRRDYETEESSGSGYSRDQLMKDVDRIFTEIKPLYEHLHAYVRTKLMDTYPFHISPTGCLPAHLLGDMWGRFWTNLYPLTVPFGQKPNIDVTDAMVNQGWDANRIFKEAEKFFVSVGLPNMTEGFWNNSMLTEPGDGRKVVCHPTAWDLGKGDFRIKMCTKVTMEDFLTAHHEMGHIQYDMAYATQPYLLRNGANEGFHEAVGEVMSLSVATPKHLKTMGLLSPDFLEDNETEINFLLKQALNIVGTLPFTYMLEKWRWMVFRGEIPKEEWMKKWWEMKRDLVGVVEPVPHDETYCDPASLFHVANDYSFIRYYTRTIFEFQFHEALCRIAQHDGPLHKCDISNSTDAGKKLHQMLSVGKSQPWTVTLKDIVDSRNMDVGPLLRYFEPLYTWLQEQNRKSHVGWNTDWSPYSD |  |  | Kd [3]: 440 nM
